In IntAct's records for PubMed 24291004:

B1: Glucocorticoid receptor (Homo sapiens), P04150 (parent)
chain: MDSKESLTPGREENPSSVLAQERGDVMDFYKTLRGGATVKVSASSPSLAVASQSDSKQRRLLVDFPKGSVSNAQQPDLSKAVSLSMGLYMGETETKVMGNDLGFPQQGQISLSSGETDLKLLEESIANLNRSTSVPENPKSSASTAVSAAPTEKEFPKTHSDVSSEQQHLKGQTGTNGGNVKLYTTDQSTFDILQDLEFSSGSPGKETNESPWRSDLLIDENCLLSPLAGEDDSFLLEGNSNEDCKPLILPDTKPKIKDNGDLVLSSPSNVTLPQVKTEKEDFIELCTPGVIKQEKLGTVYCQASFPGANIIGNKMSAISVHGVSTSGGQMYHYDMNTASLSQQQDQKPIFNVIPPIPVGSENWNRCQGSGDDNLTSLGTLNFPGRTVFSNGYSSPSMRPDVSSPPSSSSTATTGPPPKLCLVCSDEASGCHYGVLTCGSCKVFFKRAVEGQHNYLCAGRNDCIIDKIRRKNCPACRYRKCLQAGMNLEARKTKKKIKGIQQATTGVSQETSENPGNKTIVPATLPQLTPTLVSLLEVIEPEVLYAGYDSSVPDSTWRIMTTLNMLGGRQVIAAVKWAKAIPGFRNLHLDDQMTLLQYSWMFLMAFALGWRSYRQSSANLLCFAPDLIINEQRMTLPCMYDQCKHMLYVSSELHRLQVSYEEYLCMKTLLLLSSVPKDGLKSQELFDEIRMTYIKELGKAIVKREGNSSQNWQRFYQLTKLLDSMHEVVENLLNYCFQTFLDKTMSIEFPEMLAEIITNQIPKYSNGNIKKLLFHQK

Variants of: B1
Details: with akt1_human AKT1, P31749
Chain of akt1_human AKT1, P31749 (P31749 whole entry): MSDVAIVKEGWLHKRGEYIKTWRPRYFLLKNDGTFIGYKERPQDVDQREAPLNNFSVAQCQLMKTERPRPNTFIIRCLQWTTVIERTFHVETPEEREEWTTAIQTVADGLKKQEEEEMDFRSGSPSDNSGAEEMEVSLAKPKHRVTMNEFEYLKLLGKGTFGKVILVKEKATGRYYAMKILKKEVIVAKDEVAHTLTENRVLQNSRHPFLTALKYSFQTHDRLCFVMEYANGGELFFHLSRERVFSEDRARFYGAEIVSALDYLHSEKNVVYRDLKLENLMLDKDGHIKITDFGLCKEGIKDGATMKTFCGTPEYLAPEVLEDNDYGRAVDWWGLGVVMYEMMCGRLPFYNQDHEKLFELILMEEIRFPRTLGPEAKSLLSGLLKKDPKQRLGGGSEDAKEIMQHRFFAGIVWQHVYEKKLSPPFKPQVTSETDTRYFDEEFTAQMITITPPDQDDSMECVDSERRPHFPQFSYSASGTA

| effect of a mutation on the interaction | Variant |
| --- | --- |
| disrupting interaction | S134A |
